Source: patent publication US20020098541A1 (published 2002)

Legend:
Experiment in all cases: co-immunoprecipitation from co-transfected 293 cell lysates: anti-FLAG IP, anti-HA immunoblot
[1] = molecular target: T1, FLAG tagged TRAF 2 (UniProt Q12933 1-501, limits assumed)
T1 sequence (looked up): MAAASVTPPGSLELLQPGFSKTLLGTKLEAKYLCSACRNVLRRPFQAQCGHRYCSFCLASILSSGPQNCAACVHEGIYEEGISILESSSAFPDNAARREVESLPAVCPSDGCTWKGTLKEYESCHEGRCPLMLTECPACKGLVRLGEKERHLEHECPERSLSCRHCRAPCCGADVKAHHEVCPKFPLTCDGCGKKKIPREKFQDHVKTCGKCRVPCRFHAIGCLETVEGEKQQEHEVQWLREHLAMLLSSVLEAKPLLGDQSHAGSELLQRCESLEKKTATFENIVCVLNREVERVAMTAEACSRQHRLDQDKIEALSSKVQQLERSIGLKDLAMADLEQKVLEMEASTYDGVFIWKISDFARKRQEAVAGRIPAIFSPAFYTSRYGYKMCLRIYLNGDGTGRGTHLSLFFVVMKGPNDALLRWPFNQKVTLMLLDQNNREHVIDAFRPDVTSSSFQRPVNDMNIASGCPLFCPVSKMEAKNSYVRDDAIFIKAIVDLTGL
Method: (§1) For TRAF binding assays, 5×10⁵ 293 cells were transfected with 10 μg of HA tagged TR12 and 10 μg of FLAG tagged TRAF 1, 2, 3, 5, or 6 by the calcium phosphate method and cells were harvested 48 hours post transfection in lysis buffer (with 1% NP-40). Whole cell lysates were immunoprecipated with anti-FLAG M2 beads (Sigma, MO), washed 5× with lysis buffer (without BSA), boiled 5 minutes, separated by 10% SDS PAGE, transferred to nitrocellulose, probed with anti-HA HRP (Roche), and developed with ECL (Amersham).
(§2) Since NF-κB activation by TNFR superfamily members is mediated primarily by the TRAF family of signaling molecules, the ability of TR12 to bind any of the TRAF molecules was studied. 293 cells were co-transfected with a FLAG tagged TRAF expression plasmid and a hemagglutinin tagged TR12 expression plasmid.

[2] = molecular target: T2, FLAG tagged TRAF 3 (UniProt Q13114 1-568, limits assumed)
T2 sequence (looked up): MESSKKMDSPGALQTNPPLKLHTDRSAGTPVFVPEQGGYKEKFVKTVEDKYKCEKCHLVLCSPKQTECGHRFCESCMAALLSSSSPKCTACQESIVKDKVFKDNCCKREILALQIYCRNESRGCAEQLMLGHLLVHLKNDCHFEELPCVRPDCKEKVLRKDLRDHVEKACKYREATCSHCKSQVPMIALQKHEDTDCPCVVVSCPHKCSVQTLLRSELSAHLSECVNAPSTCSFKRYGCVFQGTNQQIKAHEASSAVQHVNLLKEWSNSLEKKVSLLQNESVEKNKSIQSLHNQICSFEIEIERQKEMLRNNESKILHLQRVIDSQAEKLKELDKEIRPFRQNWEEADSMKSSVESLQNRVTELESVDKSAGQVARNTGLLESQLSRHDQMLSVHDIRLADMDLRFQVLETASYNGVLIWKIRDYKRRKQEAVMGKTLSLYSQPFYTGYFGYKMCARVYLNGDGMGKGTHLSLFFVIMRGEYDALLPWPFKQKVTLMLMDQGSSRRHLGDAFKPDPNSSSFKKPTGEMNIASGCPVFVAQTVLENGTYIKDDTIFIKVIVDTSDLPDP
Method: as §1, §2

[3] = molecular target: FLAG tagged TRAF 5 (UniProt O00463 1-557, limits assumed)
Method: as §1, §2

[4] = molecular target: T3, FLAG tagged TRAF 6 (UniProt Q9Y4K3 1-522, limits assumed)
T3 sequence (looked up): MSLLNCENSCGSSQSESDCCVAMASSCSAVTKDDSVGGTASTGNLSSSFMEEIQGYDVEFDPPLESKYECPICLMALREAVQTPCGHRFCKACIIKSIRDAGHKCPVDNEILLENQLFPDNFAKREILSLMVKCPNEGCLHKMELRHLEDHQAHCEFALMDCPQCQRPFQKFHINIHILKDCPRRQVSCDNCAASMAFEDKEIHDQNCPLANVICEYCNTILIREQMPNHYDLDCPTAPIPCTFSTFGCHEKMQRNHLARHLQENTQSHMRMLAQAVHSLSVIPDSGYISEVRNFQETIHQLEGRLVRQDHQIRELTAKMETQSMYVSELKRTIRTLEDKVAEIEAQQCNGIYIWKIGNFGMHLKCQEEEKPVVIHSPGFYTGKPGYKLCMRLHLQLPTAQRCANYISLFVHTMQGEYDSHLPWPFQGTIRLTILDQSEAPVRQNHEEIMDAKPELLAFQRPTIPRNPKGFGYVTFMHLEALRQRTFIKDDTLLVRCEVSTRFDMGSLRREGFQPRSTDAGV
Method: as §1, §2

Measured: binding result

FLAG tagged TRAF 5, sequence (O00463 whole entry): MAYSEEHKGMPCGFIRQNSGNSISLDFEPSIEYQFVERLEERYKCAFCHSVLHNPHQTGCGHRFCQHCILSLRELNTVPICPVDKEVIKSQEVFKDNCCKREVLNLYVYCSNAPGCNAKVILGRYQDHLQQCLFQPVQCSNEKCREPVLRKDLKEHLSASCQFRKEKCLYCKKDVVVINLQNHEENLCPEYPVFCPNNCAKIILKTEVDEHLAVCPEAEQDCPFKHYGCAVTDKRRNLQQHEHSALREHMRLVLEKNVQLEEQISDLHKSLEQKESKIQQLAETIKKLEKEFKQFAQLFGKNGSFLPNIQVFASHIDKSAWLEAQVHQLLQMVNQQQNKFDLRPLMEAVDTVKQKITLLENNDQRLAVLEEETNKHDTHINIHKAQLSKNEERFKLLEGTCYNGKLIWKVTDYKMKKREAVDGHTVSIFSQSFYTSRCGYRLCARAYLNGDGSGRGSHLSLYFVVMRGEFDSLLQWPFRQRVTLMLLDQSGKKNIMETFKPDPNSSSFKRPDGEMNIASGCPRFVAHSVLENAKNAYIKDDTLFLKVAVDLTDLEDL

B1: HA tagged TR12 (TNFR Related Gene 12) (receptor)
chain: STTLWQCPPGEEPDLDPGQGTLCRPCPPGTFSAAWGSSPCQPHARCSLWRRLEAQVGMATRDTLCGDCWPGWFGPWGVPRVPCQPCSWAPLGTHGCDEWGRRARRGVEVAAGASSGGETRQPGNGTRAGGPEETAAQYAVIAIVPVFCLMGLLGILVCNLLKRKGYHCTAHKEVGPGPGGGGSGINPAYRTEDANEDTIGVLVRLITEKKENAAALEELLKEYHSKQLVQTSHRPVSKLPPAPPNVPHICPHRHHLHTVQGLASLSGPCCSRCSQKKWPEVLLSPEAVAATTPVPSLLPNPTRVPKAGAKAGRQGEITILSVGRFRVARIPEQRTSSMVSEVKTITEAGPSWGDLPDSPQPGLPPEQQALLGSGGSRTKWLKPPAENKAEENRYVVRLSESNLVI
notes: Expressed from a plasmid in transfected 293 cells and tested in whole cell lysate; It includes the predicted leader (about residues 1-25), which may be cleaved in cells; also called hemagglutinin tagged TR12; not shown: HA (hemagglutinin) tag
no binding: [1] | [2] | [3] | [4]
